± gives the standard deviation of the averaged measurements.
Experiment: total protein half-life in vivo (active degradation + dilution); higher = more stable protein
[1] = E. coli NCM3722 delta-clpP delta-lon delta-hslV, growth: N-lim chemostat, doubling time 6 h
[2] = E. coli NCM3722 delta-clpP, growth: N-lim chemostat, doubling time 6 h
[3] = E. coli NCM3722 delta-hslV, growth: N-lim chemostat, doubling time 6 h
[4] = E. coli NCM3722 delta-lon, growth: N-lim chemostat, doubling time 6 h
[5] = E. coli NCM3722 delta-smpB, growth: N-lim chemostat, doubling time 6 h
[6] = wild type E. coli NCM3722, growth: C-lim chemostat, doubling time 3 h
[7] = wild type E. coli NCM3722, growth: C-lim chemostat, doubling time 6 h
[8] = wild type E. coli NCM3722, growth: C-lim chemostat, doubling time 12 h
[9] = wild type E. coli NCM3722, growth: N-lim chemostat, doubling time 6 h
[10] = wild type E. coli NCM3722, growth: N-lim chemostat, doubling time 12 h
[11] = wild type E. coli NCM3722, growth: P-lim chemostat, doubling time 6 h
[12] = wild type E. coli NCM3722, growth: P-lim chemostat, doubling time 12 h

Row | Sequence | total protein half-life in vivo [1] [h] | total protein half-life in vivo [2] [h] | total protein half-life in vivo [3] [h] | total protein half-life in vivo [4] [h] | total protein half-life in vivo [5] [h] | total protein half-life in vivo [6] [h] | total protein half-life in vivo [7] [h] | total protein half-life in vivo [8] [h] | total protein half-life in vivo [9] [h] | total protein half-life in vivo [10] [h] | total protein half-life in vivo [11] [h] | total protein half-life in vivo [12] [h]
1 | MLDPNLLRNEPDAVAEKLARRGFKLDVDKLGALEERRKVLQVKTENLQAERNSRSKSIGQAKARGEDIEPLRLEVNKLGEELDAAKAELDALQAEIRDIALTIPNLPADEVPVGKDENDNVEVSRWGTPREFDFEVRDHVTLGEMHSGLDFAAAVKLTGSRFVVMKGQIARMHRALSQFMLDLHTEQHGYSENYVPYLVNQDTLYGTGQLPKFAGDLFHTRPLEEEADTSNYALIPTAEVPLTNLVRGEIIDEDDLPIKMTAHTPCFRSEAGSYGRDTRGLIRMHQFDKVEMVQIVRPEDSMAALEEMTGHAEKVLQLLGLPYRKIILCTGDMGFGACKTYDLEVWIPAQNTYREISSCSNVWDFQARRMQARCRSKSDKKTRLVHTLNGSGLAVGRTLVAVMENYQQADGRIEVPEVLRPYMNGLEYIG [P0A8L1] | 5.7 ± 0.32 | 5.43 ± 0.54 | 5.59 ± 0.06 | 5.511 ± 0.051 | 5.16 ± 0.24 | 3.66 ± 0.21 | 6.43 ± 0.77 | 11.5 ± 0.57 | 5.63 ± 0.29 | 9.239 ± 0.058 | 6.28 ± 0.27 | 13.3 ± 1.1
2 | MLDQVCQLARNAGDAIMQVYDGTKPMDVVSKADNSPVTAADIAAHTVIMDGLRTLTPDVPVLSEEDPPGWEVRQHWQRYWLVDPLDGTKEFIKRNGEFTVNIALIDHGKPILGVVYAPVMNVMYSAAEGKAWKEECGVRKQIQVRDARPPLVVISRSHADAELKEYLQQLGEHQTTSIGSSLKFCLVAEGQAQLYPRFGPTNIWDTAAGHAVAAAAGAHVHDWQGKPLDYTPRESFLNPGFRVSIY | 4.77 ± 0.078 | 4.77 ± 0.62 | 4.6 ± 0.36 | 5.51 ± 1.2 | 4.29 ± 0.011 | 2.97 ± 0.26 | 5.69 ± 0.6 | 10.58 ± 0.1 | 4.76 ± 0.5 | 7.931 ± 0.051 | 6.3 ± 0.95 | 10.7 ± 0.4
3 | MLDTNMKTQLKAYLEKLTKPVELIATLDDSAKSAEIKELLAEIAELSDKVTFKEDNSLPVRKPSFLITNPGSNQGPRFAGSPLGHEFTSLVLALLWTGGHPSKEAQSLLEQIRHIDGDFEFETYYSLSCHNCPDVVQALNLMSVLNPRIKHTAIDGGTFQNEITDRNVMGVPAVFVNGKEFGQGRMTLTEIVAKIDTGAEKRAAEELNKRDAYDVLIVGSGPAGAAAAIYSARKGIRTGLMGERFGGQILDTVDIENYISVPKTEGQKLAGALKVHVDEYDVDVIDSQSASKLIPAAVEGGLHQIETASGAVLKARSIIVATGAKWRNMNVPGEDQYRTKGVTYCPHCDGPLFKGKRVAVIGGGNSGVEAAIDLAGIVEHVTLLEFAPEMKADQVLQDKLRSLKNVDIILNAQTTEVKGDGSKVVGLEYRDRVSGDIHNIELAGIFVQIGLLPNTNWLEGAVERNRMGEIIIDAKCETNVKGVFAAGDCTTVPYKQIIIATGEGAKASLSAFDYLIRTKTA | 3.63 ± 0.29 | 2.59 ± 0.18 | 2.67 ± 0.26 | 2.81 ± 0.1 | 2.68 ± 0.052 | 2.949 ± 0.0042 | 4.6889 ± 0.00064 | 7.3 ± 0.34 | 2.56 ± 0.047 | 3.37 ± 0.05 | 5.26 ± 0.2 | 9.723 ± 0.068
4 | MLEDLKRQVLEANLALPKHNLVTLTWGNVSAVDRERGVFVIKPSGVDYSVMTADDMVVVSIETGEVVEGTKKPSSDTPTHRLLYQAFPSIGGIVHTHSRHATIWAQAGQSIPATGTTHADYFYGTIPCTRKMTDAEINGEYEWETGNVIVETFEKQGIDAAQMPGVLVHSHGPFAWGKNAEDAVHNAIVLEEVAYMGIFCRQLAPQLPDMQQTLLDKHYLRKHGAKAYYGQ |  |  |  |  |  |  | 2.27 | 9.82 |  |  |  | 
5 | MLEDLRANSWSLRPCCMVLAYRVAHFCSVWRKKNVLNNLWAAPLLVLYRIITECFFGYEIQAAATIGRRFTIHHGYAVVINKNVVAGDDFTIRHGVTIGNRGADNMACPHIGNGVELGANVIILGDITLGNNVTVGAGSVVLDSVPDNALVVGEKARVKVIK [P0ACC9] |  |  |  | 7.07 ± 0.2 |  |  |  |  |  |  |  | 
6 | MLEILYQDEWLVAVNKPSGWLVHRSWLDRDEKVVVMQTVRDQIGQHVFTAHRLDRPTSGVLLMGLSSEAGRLLAQQFEQHQIQKRYHAIVRGWLMEEAVLDYPLVEELDKIADKFAREDKGPQPAVTHYRGLATVEMPVATGRYPTTRYGLVELEPKTGRKHQLRRHLAHLRHPIIGDSKHGDLRQNRSGAEHFGLQRLMLHASQLSLTHPFTGEPLTIHAGLDDTWMQALSQFGWRGLLPENERVEFSAPSGQDGEISS [P0AA41] | 4.78 ± 0.18 | 4.49 ± 0.16 | 4.87 ± 0.88 | 4.49 | 4.34 ± 0.19 | 3 ± 0.28 |  | 11.8 ± 0.17 | 5.27 ± 1.3 | 6.98 | 5.28 ± 0.23 | 10.91 ± 0.044
7 | MLELLFLLLPVAAAYGWYMGRRSAQQNKQDEANRLSRDYVAGVNFLLSNQQDKAVDLFLDMLKEDTGTVEAHLTLGNLFRSRGEVDRAIRIHQTLMESASLTYEQRLLAIQQLGRDYMAAGLYDRAEDMFNQLTDETDFRIGALQQLLQIYQATSEWQKAIDVAERLVKLGKDKQRVEIAHFYCELALQHMASDDLDRAMTLLKKGAAADKNSARVSIMMGRVFMAKGEYAKAVESLQRVISQDRELVSETLEMLQTCYQQLGKTAEWAEFLQRAVEENTGADAELMLADIIEARDGSEAAQVYITRQLQRHPTMRVFHKLMDYHLNEAEEGRAKESLMVLRDMVGEKVRSKPRYRCQKCGFTAYTLYWHCPSCRAWSTIKPIRGLDGL [P0AB58] | 5.9 ± 0.22 |  | 6.34 ± 0.37 | 6.43 ± 0.094 | 6.039 ± 0.011 | 3.1 ± 0.047 | 5.91 ± 0.073 | 12.2 ± 0.99 | 6.101 ± 0.027 | 15.2 ± 0.67 | 5.63 ± 0.45 | 12.5 ± 0.6
8 | MLELNFSQTLGNHCLTINETLPANGITAIFGVSGAGKTSLINAISGLTRPQKGRIVLNGRVLNDAEKGICLTPEKRRVGYVFQDARLFPHYKVRGNLRYGMSKSMVDQFDKLVALLGIEPLLDRLPGSLSGGEKQRVAIGRALLTAPELLLLDEPLASLDIPRKRELLPYLQRLTREINIPMLYVSHSLDEILHLADRVMVLENGQVKAFGALEEVWGSSVMNPWLPKEQQSSILKVTVLEHHPHYAMTALALGDQHLWVNKLDEPLQAALRIRIQASDVSLVLQPPQQTSIRNVLRAKVVNSYDDNGQVEVELEVGGKTLWARISPWARDELAIKPGLWLYAQIKSVSITA | 5.74 ± 0.84 | 6.32 ± 1.6 | 6.25 ± 0.98 | 5.26 ± 0.55 | 5.04 ± 0.092 | 2.76 ± 0.18 | 5.77 ± 0.64 | 11 ± 1.2 | 5.676 ± 0.014 | 10.2 ± 1.3 | 6.12 ± 0.077 | 
9 | MLEMLMQWYRRRFSDPEAIALLVILVAGFGIIFFFSGLLAPLLVAIVLAYLLEWPTVRLQSIGCSRRWATSIVLVVFVGILLLMAFVVLPIAWQQGIYLIRDMPGMLNKLSDFAATLPRRYPALMDAGIIDAMAENMRSRMLTMGDSVVKISLASLVGLLTIAVYLVLVPLMVFFLLKDKEQMLNAVRRVLPRNRGLAGQVWKEMNQQITNYIRGKVLEMIVVGIATWLGFLLFGLNYSLLLAVLVGFSVLIPYIGAFVVTIPVVGVALFQFGAGTEFWSCFAVYLIIQALDGNLLVPVLFSEAVNLHPLVIILSVVIFGGLWGFWGVFFAIPLATLIKAVIHAWPDGQIAQE [P0AFI9] | > 8 |  |  |  | > 8 | > 4 | 6.12 ± 0.64 | 12.2 ± 0.49 |  | 10.4 ± 1.8 |  | 
10 | MLEQMGIAAKQASYKLAQLSSREKNRVLEKIADELEAQSEIILNANAQDVADARANGLSEAMLDRLALTPARLKGIADDVRQVCNLADPVGQVIDGGVLDSGLRLERRRVPLGVIGVIYEARPNVTVDVASLCLKTGNAVILRGGKETCRTNAATVAVIQDALKSCGLPAGAVQAIDNPDRALVSEMLRMDKYIDMLIPRGGAGLHKLCREQSTIPVITGGIGVCHIYVDESVEIAEALKVIVNAKTQRPSTCNTVETLLVNKNIADSFLPALSKQMAESGVTLHADAAALAQLQAGPAKVVAVKAEEYDDEFLSLDLNVKIVSDLDDAIAHIREHGTQHSDAILTRDMRNAQRFVNEVDSSAVYVNASTRFTDGGQFGLGAEVAVSTQKLHARGPMGLEALTTYKWIGIGDYTIRA | 5.127 ± 0.031 | 4.65 ± 0.2 | 4.64 ± 0.14 | 4.75 ± 0.29 | 4.5 ± 0.067 | 3.12 ± 0.3 | 5.68 ± 0.2 | 10.9 ± 0.47 | 4.65 ± 0.12 | 7.82 ± 0.18 | 5.31 ± 0.65 | 12.15 ± 0.096
11 | MLFTIQLIIILICLFYGARKGGIALGLLGGIGLVILVFVFHLQPGKPPVDVMLVIIAVVAASATLQASGGLDVMLQIAEKLLRRNPKYVSIVAPFVTCTLTILCGTGHVVYTILPIIYDVAIKNNIRPERPMAASSIGAQMGIIASPVSVAVVSLVAMLGNVTFDGRHLEFLDLLAITIPSTLIGILAIGIFSWFRGKDLDKDEEFQKFISVPENREYVYGDTATLLDKKLPKSNWLAMWIFLGAIAVVALLGADSDLRPSFGGKPLSMVLVIQMFMLLTGALIIILTKTNPASISKNEVFRSGMIAIVAVYGIAWMAETMFGAHMSEIQGVLGEMVKEYPWAYAIVLLLVSKFVNSQAAALAAIVPVALAIGVDPAYIVASAPACYGYYILPTYPSDLAAIQFDRSGTTHIGRFVINHSFILPGLIGVSVSCVFGWIFAAMYGFL [P0ABN9] | 7.71 | 5.98 ± 1.5 | 5.58 ± 0.66 |  |  |  |  |  | 6.04 ± 0.11 | 12.9 ± 1.5 |  | > 16

— the supplement of paper PMC11246515
